Source: paper PMC3158819 (Journal of molecular biology, 2011)

T1: CASK CaMK domain (residues M1-A310) (human, UniProt O14936 1-310)
T1 sequence (looked up): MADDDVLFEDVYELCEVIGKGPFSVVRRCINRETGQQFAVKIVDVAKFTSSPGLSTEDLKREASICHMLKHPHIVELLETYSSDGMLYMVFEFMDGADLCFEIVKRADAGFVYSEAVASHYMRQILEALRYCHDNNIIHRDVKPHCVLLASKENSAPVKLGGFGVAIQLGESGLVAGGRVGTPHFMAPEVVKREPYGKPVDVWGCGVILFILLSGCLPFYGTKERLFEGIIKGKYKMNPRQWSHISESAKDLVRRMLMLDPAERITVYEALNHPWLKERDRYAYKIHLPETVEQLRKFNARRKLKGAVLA

B1: Caskin1 CID (residues I375 to G471) (domain or fragment, UniProt Q8WXD9 375-471, looked up)
chain: IWVLRKPFAGGDRSGSISGMAGGRGSGGHALHAGSEGVKLLATVLSQKSVSESGPGDSPAKPPEGSAGVARSQPPVAHAGQVYGEQPPKKLEPASEG
B2: Caskin1 CID-SAMs (residues I375 to L605), wild type (domain or fragment)
chain: not shown

Assays:
[1] = molecular target: T1, CASK CaMK domain (residues M1-A310); experiment: SPR
[2] = molecular target: T1, CASK CaMK domain (residues M1-A310); experiment: SEC

Binder	Kd [1] [µM]	binding result [2]
B1	7.5 ± 0.5	–
B2	–	binds
